In PMC8597016 one finds Kd data, which are given here for two substances.

This assay has as its target Biotinylated CD11b I domain (human). In words: BLI. In general terms: BLI is a label-free optical method that tracks binding on a fibre tip over time.

Usually Kd stands for a measure of binding affinity in units of concentration. The low end stands for tighter binding, the high end for weaker binding. Consider CC8 LukAB (complex), for which the Kd came to 9.41 nM.

With CC30 LukAB (complex), the Kd came out at 214 nM.
